{
  "source": "patent US20250034271A1",
  "binders": {"B1": {"name": "Dacetuzumab (antibody, part only; not given: constant regions, V domains shown, not shown: another chain or arm of the molecule)", "VH": "EVQLVESGGGLVQPGGSLRLSCAASGYSFTGYYIHWVRQAPGKGLEWVARVIPNAGGTSYNQKFKGRFTLSVDNSKNTAYLQMNSLRAEDTAVYYCAREGIYWWGQGTLVTVSS", "VL": "DIQMTQSPSSLSASVGDRVTITCRSSQSLVHSNGNTFLHWYQQKPGKAPKLLIYTVSNRFSGVPSRFSGSGSGTDFTLTISSLQPEDFATYFCSQTTHVPWTFGQGTKVEIK"}},
  "target": "Histidine-tagged human CD40 protein (hCD40-His) (human) (UniProt P25942)",
  "sequence (P25942 21-193 limits assumed)": "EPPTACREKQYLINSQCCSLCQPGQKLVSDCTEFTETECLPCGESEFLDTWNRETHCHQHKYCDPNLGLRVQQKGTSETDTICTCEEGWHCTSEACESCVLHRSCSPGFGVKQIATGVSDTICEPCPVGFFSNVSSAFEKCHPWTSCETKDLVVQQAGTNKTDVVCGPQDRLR",
  "test": "SPR, Biacore T200; antibody on Protein A chip, hCD40-His injected; 1:1 fit",
  "data": [
    {"binder": "B1", "values": [
      {"measurement": "Kd", "value": 20, "unit": "nM"},
      {"measurement": "koff", "value": 0.00833, "unit": "s⁻¹"},
      {"measurement": "kon", "value": 417000, "unit": "M⁻¹ s⁻¹"}
    ]}
  ]
}
